# Experimental data published in patent US20070060518A1 (MANNKIND, published 2007).
# Read-outs that look alike come from different tables or passages of the source. Square brackets hold non-standard residues; d marks the D form. Ends that are not written are not given here. Phe(4-NO2) = N[C@@H](Cc1ccc([N+](=O)[O-])cc1)C(=O)O; Phg = N[C@H](C(=O)O)c1ccccc1; Nle = CCCC[C@H](N)C(=O)O; Nva = CCC[C@H](N)C(=O)O; Abu = CC[C@H](N)C(=O)O
# B1: SSX2 41-49 (K41(Phe-4N02)) (peptide)
# peptide: [Phe(4-NO2)]ASEKIFYV
# notes: also called para-nitrophenylalanine analog
# Tests used:
# [1] = biological target: T1, HLA-A*0201 on T2 cells (human); experiment: T2 cell stability assay, flow cytometry
# T1 construct: whole, on cells; also called HLA-A2
# [2] = biological target: T1, HLA-A*0201 on T2 cells; experiment: T2 cell binding assay, flow cytometry
# [3] = biological target: T1, HLA-A*0201 on T2 cells; experiment: T2 cell binding assay, flow cytometry; remark: listed apart in the source
# [4] = biological target: T1, HLA-A*0201 on T2 cells; experiment: T2 cell stability assay, flow cytometry; remark: listed apart in the source
# [5] = biological target: T2, HLA-A*0201 class I monomer on avidin-coated plates (iTopia Epitope Discovery System) (human); experiment: iTopia assays (FIG. 19)
# T2 construct: Bought kit (Beckman Coulter); also called A0201 restricted MHC Class 1 molecules; MHC monomer
# Excerpt: (§1) Avidin-coated microtiter plates containing class I monomer loaded with a so-called placeholder peptide were used to evaluate peptide binding, affinity and off-rate. […] Assay buffers, anti-MHC-FITC mAb and beta2-microglobulin and control peptides were also supplied with the kits. Binding Assay:
# This assay measures the ability of individual peptides to bind HLA molecules under standardized optimal binding conditions. Monomer-coated plates were first stripped, releasing the placeholder peptide and leaving only the MHC heavy chain bound to the plate. Test peptides were then introduced under optimal folding conditions, along with the anti-MHC-FITC mAb. […] The anti-MHC-FITC mAb binds preferentially to a refolded MHC complex. Therefore, the fluorescence intensity resulting from each peptide was related to the peptide's ability to form complex with MHC molecule. Each peptide's binding was evaluated relative to the positive control peptide provided in the kit, and the results were expressed “% binding”.
# [6] = biological target: T2, HLA-A*0201 class I monomer on …; experiment: iTopia off-rate assay (FIG. 20)
# Description: as §1
# The plates were then incubated on the allele-specific monomer plates at 37° C. The plates were measured at multiple time points (0, 0.5, 1, 1.5, 2, 4, 6 and 8 hrs) for relative fluorescence intensity. The time required for 50% of the peptide to dissociate from the MHC monomer is defined as the T1/2 value (hrs).
# [7] = biological target: T2, HLA-A*0201 class I monomer on …; experiment: iTopia affinity assay (FIG. 19)
# Excerpt: as §1
# [8] = biological target: T1, HLA-A*0201 on T2 cells; experiment: T2 cell binding assay, flow cytometry; remark: listed apart in the source
binder,measurement,setting,value
"FVSEKIFYV [SSX2 41-49 (K41F, A42V)]",Stability (T1/2),[1],24 h
same,EC50,[2],4.67 µM
same,Relative affinity (1/RA),[2],3.1
"FISEKIFYV [SSX2 41-49 (K41F, A42I)]",Stability (T1/2),[1],> 24 h
same,EC50,[2],5.37 µM
same,Relative affinity (1/RA),[2],2.7
"FVSDKIFYV [SSX2 41-49 (K41F, A42V, E44D)]",EC50,[3],13.2 µM
same,Relative affinity (1/RA),[3],1.1
"FVSQKIFYV [SSX2 41-49 (K41F, A42V, E44Q)]",EC50,[3],40.8 µM
same,Relative affinity (1/RA),[3],0.4
"FVSEKLFYV [SSX2 41-49 (K41F, A42V, I46L)]",Stability (T1/2),[4],24 h
same,EC50,[3],7.8 µM
same,Relative affinity (1/RA),[3],1.9
"FVSEKLFSA [SSX2 41-49 (K41F, A42V, I46L, Y48S, V49A)]",EC50,[3],6.2 µM
same,Relative affinity (1/RA),[3],2.4
"FVSEKLFTV [SSX2 41-49 (K41F, A42V, I46L, Y48T)]",Stability (T1/2),[4],24 h
same,EC50,[3],5.67 µM
same,Relative affinity (1/RA),[3],2.6
"FVSEKLFTA [SSX2 41-49 (K41F, A42V, I46L, Y48T, V49A)]",Stability (T1/2),[4],12 h
"FVSEKVFYV [SSX2 41-49 (K41F, A42V, I46V)]",Stability (T1/2),[4],24 h
"FVSEKIFFV [SSX2 41-49 (K41F, A42V, Y48F)]",Stability (T1/2),[4],20 h
same,EC50,[3],8.8 µM
same,Relative affinity (1/RA),[3],1.7
"FVSEKIFSV [SSX2 41-49 (K41F, A42V, Y48S)]",Stability (T1/2),[4],20 h
same,EC50,[3],3.8 µM
same,Relative affinity (1/RA),[3],3.9
"FVSEKIFTV [SSX2 41-49 (K41F, A42V, Y48T)]",Stability (T1/2),[4],24 h
same,EC50,[3],3.9 µM
same,Relative affinity (1/RA),[3],3.8
"WLSEKIFYV [SSX2 41-49 (K41W, A42L)]",Stability (T1/2),[1],> 24 h
same,EC50,[2],4.47 µM
same,Relative affinity (1/RA),[2],3.3
"WMSEKIFYV [SSX2 41-49 (K41W, A42M)]",Stability (T1/2),[1],> 24 h
same,EC50,[2],5.13 µM
same,Relative affinity (1/RA),[2],2.9
"WVSEKIFYV [SSX2 41-49 (K41W, A42V)]",Stability (T1/2),[1],> 24 h
same,EC50,[2],4.82 µM
same,Relative affinity (1/RA),[2],3
"YLSEKIFYV [SSX2 41-49 (K41Y, A42L)]",Stability (T1/2),[1],> 24 h
same,EC50,[2],11.8 µM
same,Relative affinity (1/RA),[2],1.2
"YMSEKIFYV [SSX2 41-49 (K41Y, A42M)]",Stability (T1/2),[1],> 24 h
same,EC50,[2],25 µM
same,Relative affinity (1/RA),[2],0.6
"YVSEKIFYV [SSX2 41-49 (K41Y, A42V)]",Stability (T1/2),[1],> 24 h
"FVS[Nle]KIFYV (also called FVS(Nle)KIFYV) [SSX2 41-49 (K41F, A42V, E44Nle)]",EC50,[3],13 µM
same,Relative affinity (1/RA),[3],1.1
"FVS[Nva]KIFYV (also called FVS(Nva)KIFYV) [SSX2 41-49 (K41F, A42V, E44Nva)]",Stability (T1/2),[4],> 24 h
same,EC50,[3],3.8 µM
same,Relative affinity (1/RA),[3],3.9
"FVSEK[Nle]FYV (also called FVSEK(Nle)FYV) [SSX2 41-49 (K41F, A42V, I46Nle)]",EC50,[3],12.8 µM
"FVSEK[Nva]FYV (also called FVSEK(Nva)FYV) [SSX2 41-49 (K41F, A42V, I46Nva)]",Stability (T1/2),[4],> 24 h
same,EC50,[3],6.21 µM
same,Relative affinity (1/RA),[3],2.4
"FVSEKIFXV (4-fluorophenylalanine (Phe(4-F)) at position 48 (P8), also called FVSEKIF(Phe-4F)V) [SSX2 41-49 (K41F, A42V, Y48(Phe-4F))]",Stability (T1/2),[4],24 h
same,EC50,[3],10.6 µM
same,Relative affinity (1/RA),[3],1.4
"FVSEKIF[Phg]V (also called FVSEKIF(Phg)V) [SSX2 41-49 (K41F, A42V, Y48Phg)]",Stability (T1/2),[4],> 24 h
same,EC50,[3],5.85 µM
same,Relative affinity (1/RA),[3],2.5
ALPSIPVHPI [PSMA288-297 analog with Ala at P1],binding result,[5],binds
ALPSIPVHPV [PSMA288-297 analog with Ala at P1 and Val at PΩ],binding result,[6],binds
GLPSIPVHAI [PSMA288-297 analog with Ala at PΩ-1],binding result,[5],binds
GQPSIPVHPI [PSMA288-297 analog with Gln at P2],binding result,[7],binds
GIPSIPVHPI [PSMA288-297 analog with Ile at P2],binding result,[7],binds
GLPSIPVHPL [PSMA288-297 analog with Leu at PΩ],binding result,[7],binds
GLPSIPVHLI [PSMA288-297 analog with Leu at PΩ-1],binding result,[5],binds
SLPSIPVHPI [PSMA288-297 analog with Ser at P1],binding result,[5],binds
GLPSIPVHSI [PSMA288-297 analog with Ser at PΩ-1],binding result,[5],binds
GLPSIPVHTI [PSMA288-297 analog with Thr at PΩ-1],binding result,[5],binds
GVPSIPVHPI [PSMA288-297 analog with Val at P2],binding result,[7],binds
G[Nva]PSIPVHPV [PSMA288-297 analog with Nva at P2 and Val at PΩ],binding result,[6],binds
G[Abu]PSIPVHPI [PSMA288-297 analog with Abu at P2],binding result,[7],binds
G[Nva]PSIPVHPI [PSMA288-297 analog with Nva at P2],binding result,[7],binds
ALPSIPVHP[Nva] [PSMA288-297 analog with Ala at P1 and Nva at PΩ],binding result,[6],binds
GVPSIPVHP[Nva] [PSMA288-297 analog with Val at P2 and Nva at PΩ],binding result,[6],binds
GLPSIPVHP[Nle] [PSMA288-297 analog with Nle at PΩ],binding result,[7],binds
"XLPSIPVHPI (sarkosine (Sar, N-methylglycine) at P1) [PSMA288-297 analog with Sar at P1]",binding result,[5],binds
[Abu]LPSIPVHPV [PSMA288-297 analog with Abu at P1 and Val at PΩ],binding result,[6],binds
"XLPSIPVHPI (aminobutyric acid (Abu) at P1, also called G288Abu) [PSMA288-297 analog with Abu at P1]",binding result,[5],binds
B1,EC50,[8],12.8 µM
same,Relative affinity (1/RA),[8],1.1
XASEKIFYV (β-(3-benzothienyl)-alanine at position 41 (P1)) [SSX2 41-49 (K41(b-(3-benzothienyl)Ala))],EC50,[8],24.1 µM
same,Relative affinity (1/RA),[8],0.6
